Reference: the supplement of paper PMC9170038

The sequences below were run on MS2 coat protein (assay: apparent KD of MS2 coat protein; higher = weaker reporter binding). Conditions: Eterna round: R107; input ligand: theophylline 2 mM.
Procedure, shortened: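 The buffer was 100 mM Tris-HCl pH 7.5 with 80 mM KCl and 4 mM MgCl2, used without or with constant ligand. In it, RNA switches transcribed on-chip from Illumina sequencing clusters were titrated with SNAP-549-labelled MS2 coat protein in twofold steps from 0.7 or 1.5 nM to 3 µM. Apparent KD for each design is the median of its normalised cluster binding-curve fits.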

In order of rising “apparent KD of MS2 coat protein” value:
1. UGUAUAUACGGAAGGAGCGUGUAAGAUUAAGAACAUGAGGAUCACCCAUGUUUUAAGGGAACACAGGUAGGUCGCCGUAUAUAUG [11.O]  11.7 nM
2. UAGACGGCCGGAAGGAGCGGUACAUGAGGAUCACCCAUGUAUCCCUGGGCAUCCGUAGUGUGCCAGGUAGGUCGCCGGUUGCGGG [XArg-B21]  18.2 nM
3. CGAAAGCACAUGGGUUGCUUUCGACUGGAAGGAGCGAGCGAAAGCUCAGGUAGGUCGCCAGAAACAUGAGGAUCACCCAUGUAAU [(A)''-(M)'-(A)'(Arg1)-(Arg2)-(M1)-(M2)_Design10]  21.3 nM
4. CACAUGAGGAUCACCCAUGUCUGAACUGAAGGAGCGCUAAACAAGGCAGGUAGGUCGCGGAAUCCCGGGUGCAUAUGCACCCGGG [9.aA]  23.4 nM
5. CUAUAAGUACCGGUCCUCAGAUCCUCAUGACGAGGACCGGUACGGCCGCCACUCGAAACAUGAGGAUCACCCAUGUAAUAAUAUU [Brourdmod10]  24.2 nM
6. GCCUAGCAUCGAAGGAGCGCUGGUGAAACUGACUAAUAUACAUGAGGAUCACCCAUGUGCUAGCAGGUAGGUCGCGAUGCUAGGC [SSAB NP+V+V2 #11]  25.5 nM
7. CCUAUGCAGUCGGCCGCCACUGAACAUGAGGAUCACCCAUGUUUUUAUAAAUAUGGUCCUAUAAUCAGGACCGGGACUGUAUAGG [Ex Tryptophan B 9]  64.6 nM
8. AGUCUUAAAGGAAGGAGCGCAAUCAUAACAUGAGGAUCACCCAUGUCGAGGUGAGGGUCAUUGCAGGUAGGUCGCCUUACUAAGA [Same State - Arginine B (Freestyle 7)]  134 nM

Same assay, conditions: Eterna round: R107; input ligand: tryptophan 2.4 mM

In order of falling “apparent KD of MS2 coat protein” value:
1. CCAUGCAGGUCGGCCGCCACUACACACAUGAGGAUCACCCAUGUAGUUACUGGGUGAAGUGGCAGUAGGACCGGGACCUGCAUAU [Brourdmod11]  1020 nM
2. GGUGGCGUGACGGAUACCAGCCACCGCCGCAAGGCCACAUGAGGAUCACCCAUGUUGGGUGGCCCUUGGCAGCUGUCGUGCGGCG [#1 Same State - Theophylline B Attempt #21 (HarryS)]  378 nM
3. UCCUCCUCCGCAAGGAGGAGGAGUUGCGAUACCAGCACGGUAACGUGCCCUUGGCAGCGCACAUGAGGAUCACCCAUGUGGUGUU [#1 Exclusion - Theophylline A Attempt #12 (HarryS)]  231 nM
4. GAUGAUAUUGCAGAUACCAGACACAUGAGGAUCACCCAUGUCUCUGUGAUGUAGGAUUGUGUCCCUUGGCAGCUGCGAUAUCAUC [Chile]  175 nM
5. AAACUAACGAGAGGAAACCUCGAGGGUGAUACCAGCACAUAAGGGUGCCCUUGGCAGCACCGACGUACAUGAGGAUCACCCAUGU [Gexegees]  169 nM
6. GACCUUAUCUGAAGGAGCGAGGUAAAUAGGGUUGAGCAUACAUGAGGAUCACCCAUGUGGCCUCAGGUAGGUCGCAGAUAAGACA [Exclusion Arginine B GF29]  137 nM
7. UGUAACAUGAGGAUCACCCAUGUGAGUGAUACCAGAUUAGUAUUAGUCCCUUGGCAGCACAUUGGGCGAGUGUAUAGUCUAUGCG [Same State - Theophylline A (Freestyle 12)]  135 nM
8. UGAGUUAGACAAAAGUCUAGCUCUGGUGAAGGAGCGUCCGAAAGGACAGGUAGGUCGCACCACCUGAGGAUCACCCGGGUUCCUA [ArgAS 13 #OpenEnded #AlternativeMS2]  115 nM
9. GACCUUAUCUGAAGGAGCGAGGUAAAUAGGGAUGAGCAUACAUGAGGAUCACCCAUGUGGCCUCAGGUAGGUCGCAGAUGAGAUU [Exclusion Arginine B GF27]  105 nM
10. AGUCUUAAAGGAAGGAGCGCAAUCAUAACAUGAGGAUCACCCAUGUCGAGGUGAGGGUCAUUGCAGGUAGGUCGCCUUACUAAGA [Same State - Arginine B (Freestyle 7)]  78.4 nM
11. AGUACAUGAGGAUCACCCAUGUACCAUGAUACCAGACAUGAAAAUGUCCCUUGGCAGCGUGGGUGAGGCAUCCGAAAGGAUGCCC [#05 SameState-TheophyllineA]  77.7 nM
12. AACAACAAGGGAAGGAGCGCGAAUAAUAGACAUGAGGAUCACCCAUGUAUCAUGGGAUUAACGCAGGUAGGUCGCCCACAAACAA [#07 Exclusion - Arginine B]  71.7 nM
13. CCUAUGCAGUCGGCCGCCACUGAACAUGAGGAUCACCCAUGUUUUUAUAAAUAUGGUCCUAUAAUCAGGACCGGGACUGUAUAGG [Ex Tryptophan B 9]  69.2 nM
14. CCUGGACAUGAGGAUCACCCAUGUGAGGAUACCAGAUAUCCUGAUAUCCCUUGGCAGCCUCAUUACUUCGCAUUACCGAAACUUC [theeternabot_sameState_MS2_Theo_A_35]  57.1 nM
15. CCUAUGCAGUCGGCCGCCACUGAAAUAAAUUAUAUUACCUCAGAAACAUGAGGAUCACCCAUGUACAGGACCGGGACUGUAUAGG [Ex Tryptophan B 15]  56.3 nM
16. AAUUUAAACGGAAGGAGCGUCACUUAAUAUCAACAUGAGGAUCACCCAUGUACGGGUUGUAGACAGGUAGGUCGCCGUCAUUUGA [#15 Same State - Arginine B]  53.5 nM
17. UGUAUGGACUGAAGGAGCGGGUUGAUAACUUGAGGAUCACCCAGGUAAAAGGCGAAAGCCGCCCAGGUAGGUCGCAGUCCAUACU  49.2 nM
18. AAUAACUUGAGGAUCACCCAAGUAAAAGAUACCAGAGUGAUGAUCCUCCCUUGGCAGCUUAACGCUGAUUGAUUACAAUCAGCGA  45.8 nM
19. CAAACAUGAGGAUCACCCAUGUAAUCAGAUACCAGUGACGAAAGUCACCCUUGGCAGCUGAGUACAUUAGUUCUAAGGUGUUUGA [EThA NP+V+V2 #6 +-Same Structure]  35.7 nM
20. UCGCUCGCCGAAAGGCGAGCGAGUUGCGAUACCAGCCCGGAAACGGGCCCUUGGCAGCGCACAUGAGGAUCACCCAUGUCAUGUU [#1 Exclusion - Theophylline A Attempt #3 (HarryS)]  31.3 nM
21. CGUAUUACGAAAGUAGUACGUAGUGUUCGACGAGGACCGGUACGGCCGCCACUCGGACAUGAGGAUCACCCAUGUAGCGAAAGCU [Tryptophan A 24]  28.3 nM
22. UAUAUAGAAGGAUGUCAUAUAGAUGCAGAAGGAGCGUAGGAAACUACAGGUAGGUCGCUGAGGUACAUGAGGAUCACCCAUGUAG [SSArg A #17 Slice of Pi]  26.7 nM
23. CGAAAGCACAUGGGUUGCUUUCGACUGGAAGGAGCGAGCGAAAGCUCAGGUAGGUCGCCAGAAACAUGAGGAUCACCCAUGUAAU [(A)''-(M)'-(A)'(Arg1)-(Arg2)-(M1)-(M2)_Design10]  22.4 nM
24. CACAUGAGGAUCACCCAUGUCUGAACUGAAGGAGCGCUAAACAAGGCAGGUAGGUCGCGGAAUCCCGGGUGCAUAUGCACCCGGG [9.aA]  21.4 nM
25. GCCUAGCAUCGAAGGAGCGCUGGUGAAACUGACUAAUAUACAUGAGGAUCACCCAUGUGCUAGCAGGUAGGUCGCGAUGCUAGGC [SSAB NP+V+V2 #11]  21.1 nM
26. ACACGAAGCUGAAGGAGCGUGGUAUAAAUUUUUACAUGAGGAUCACCCAUGUUUCAUCAAUCACAGGUAGGUCGCAGAUGCGUGA [JR_SSArginiB_Sub014]  15.9 nM
27. UAGACGGCCGGAAGGAGCGGUACAUGAGGAUCACCCAUGUAUCCCUGGGCAUCCGUAGUGUGCCAGGUAGGUCGCCGGUUGCGGG [XArg-B21]  15.9 nM
28. UUACAACUAAUGGAUACCAGCCGCGUGCUAGUGGUAGCAUACAUGAGGAUCACCCAUGUCGGCCCUUGGCAGCCACGCCCAUGCU [theeternabot_exclusion_MS2_Theo_B_2]  14.2 nM
29. AGCGGAACGGAAGGGUCCCGAAAUUGUGAUACCAGCCUUGAAUCCGGCCCUUGGCAGCACAUGAGGAUCACCCAUGUACUGCGGU [Arimaed]  13.1 nM
30. AAACGUUGCUCAGAUACCAGACAUGAGGAUCACCCAUGUACCAAGGUAAAGAAAUAACGUGUCCCUUGGCAGCUGAGCAACGAAA [MAT - Exclusion Theophlline B - Mod of Eli - D11]  11.1 nM
31. AAAGGUCGCAAUAAAUCUCCUACAUGUGAAGGAGCGCGCGAAAGCGCAGGUAGGUCGCACAUGAGGAUCACCCAUGUGAGCGACC [MAT - Exclusion Arginine A - Mod of Eli - D3]  10.8 nM
32. UGUAUAUACGGAAGGAGCGUGUAAGAUUAAGAACAUGAGGAUCACCCAUGUUUUAAGGGAACACAGGUAGGUCGCCGUAUAUAUG [11.O]  10.3 nM
